The values below come from article PMC10604876, “Development of Anti-OSCAR Antibodies for the Treatment of Osteoarthritis” (Biomedicines, 2023).

The target in experiment [1] is T1, mouse OSCAR extracellular domains fused to human IgG1 Fc (Mus musculus (Mouse)., UniProt Q8VBT3).
T1 construct: osteoclast-associated receptor (OSCAR), mouse, extracellular domains 'corresponding' to amino acids 19-233 of human OSCAR; also called mOSCAR-Fc; mOSCAR; source: FreeStyle 293F, transfected (pVITRO1), secreted, purified (Protein G-Sepharose)
Kind of experiment: ELISA; serial dilution ELISA of IgG-format antibodies against hOSCAR-Fc and mOSCAR-Fc; EC50. Particulars: both partners purified.

The target in experiment [2] is T2, human OSCAR extracellular domains fused to human IgG1 Fc (human) (UniProt Q8IYS5).
T2 sequence: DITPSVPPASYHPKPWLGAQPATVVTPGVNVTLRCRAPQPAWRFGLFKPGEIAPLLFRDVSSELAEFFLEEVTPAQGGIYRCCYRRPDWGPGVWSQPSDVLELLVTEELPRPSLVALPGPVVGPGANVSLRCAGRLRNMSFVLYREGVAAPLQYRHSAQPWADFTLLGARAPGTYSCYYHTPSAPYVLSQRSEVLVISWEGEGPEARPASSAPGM
The description is as above.

Experiment [3] deals with T1, mouse OSCAR extracellular domains fused …. Kind of experiment: BLI; Octet; IgG (5 ug/mL) captured on FAB2G sensor; 4.69-75 nM hOSCAR-Fc or mOSCAR-Fc (two-fold serial dilution) in PBST; 1:1 Langmuir model. As to conditions: both partners purified.
Experiment [4] deals with T3, human OSCAR extracellular domains fused to human IgG1 Fc (Homo sapiens, UniProt Q8IYS5-2).
T3 construct: osteoclast-associated receptor (OSCAR), human, extracellular domains, amino acids 19-233; also called hOSCAR-Fc; hOSCAR; source: FreeStyle 293F, transfected (pVITRO1), secreted, purified (Protein G-Sepharose)
Kind of experiment: ELISA; serial dilution ELISA of IgG-format antibodies against hOSCAR-Fc and mOSCAR-Fc; EC50. As to conditions: both partners purified.

In experiment [5] the target is T3, human OSCAR extracellular domains fused …. The description is as above. As to conditions: both partners purified. The source holds these as a separate data set.
For experiment [6] the target is unchanged. Kind of experiment: BLI; Octet; IgG (5 ug/mL) captured on FAB2G sensor; 4.69-75 nM hOSCAR-Fc or mOSCAR-Fc (two-fold serial dilution) in PBST; 1:1 Langmuir model. Particulars: both partners purified.
Experiment [7] has as its target anti-OSCAR antibody D11, human IgG1. The description is as above.

T1 sequence (Q8VBT3 19-231): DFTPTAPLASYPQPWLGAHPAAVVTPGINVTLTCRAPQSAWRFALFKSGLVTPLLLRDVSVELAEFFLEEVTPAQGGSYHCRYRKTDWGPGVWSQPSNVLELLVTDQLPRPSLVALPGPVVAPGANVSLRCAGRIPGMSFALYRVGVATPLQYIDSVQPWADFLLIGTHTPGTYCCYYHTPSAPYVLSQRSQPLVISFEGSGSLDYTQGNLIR

B1: anti-OSCAR antibody D11, human IgG1 (antibody, V domains shown)
VH: EVQLLESGGGLVQPGGSLRLSCAASGFTFSDYYWTWVRQAPGKGLEWVSGSPVFGAANYAQNFQGRFTISRDNSKNTLYLQMNSLRAEDTAVYYCAKAGFTGGHFDIWGQGTLVTVSS
VL: QSVLTQPPSASGTPGQRVTISCSGSSSNIGNNYVSWYQQLPGTAPKLLIYGNSNRPSGVPNRFSGSKSGTSASLAISGLRSEDEADYYCQSYDSSSWLFGGGTKLTVL
notes: VH before CDR-H3 (clone from a synthetic human scFv library); rest of VH after CDR-H3 and the human IgG1 constant region; light chain of D11; IgG1; Only the CDR-H3 is printed; also called D11 (parent); D11 IgG; source: ExpiCHO, transfected (pcIW3.3), secreted, purified (Protein G)
Take B1: the EC50 in experiment [1] was determined as 151 nM. In experiment [2], this molecule came in with an EC50 of more than 1000 nM. In experiment [3], this molecule showed a Kd of 2.87 nM, a koff of 0.000254 s⁻¹ and a kon of 91300 M⁻¹ s⁻¹.

B2: anti-OSCAR antibody D11-B9, human IgG1 (affinity-matured variant of D11) (antibody, V domains shown)
VH: EVQLLESGGGLVQPGGSLRLSCAASGFTFSDYYWTWVRQAPGKGLEWVSGSPVFGAANYAQNFQGRFTISRDNSKNTLYLQMNSLRAEDTAVYYCAKAGIPGHFDIWGQGTLVTVSS
VL: QSVLTQPPSASGTPGQRVTISCSGSSSNIGNNYVSWYQQLPGTAPKLLIYGNSNRPSGVPNRFSGSKSGTSASLAISGLRSEDEADYYCQSYDSSSWLFGGGTKLTVL
notes: VH before CDR-H3, as the heavy chain of m3; rest of VH after CDR-H3 and the human IgG1 constant region, as the heavy chain of m3; as the light chain of m3 (only CDR-H3 was randomized); IgG1; Only the CDR-H3 is printed; From NNK randomization of residues H98-99 (Kabat); CDR-H3 is one residue shorter than the parent's; also called D11-4-B9; source: ExpiCHO, transfected (pcIW3.3), secreted, purified …
In the case of B2, the EC50 is 36.8 nM in experiment [4], 0.93 nM in experiment [1] and 0.93 nM in experiment [5]. Also, the results for the Kd in experiment [6] and in experiment [3] were 0.41 nM and 0.22 nM, respectively. Moreover, the koff is 4.15e-05 s⁻¹ in experiment [6] and 2.59e-05 s⁻¹ in experiment [3]. Besides, the kon was 101000 M⁻¹ s⁻¹ in experiment [6] and 913000 M⁻¹ s⁻¹ in experiment [3].

B3: human OSCAR extracellular domains fused to human IgG1 Fc (Fc fusion)
chain: DITPSVPPASYHPKPWLGAQPATVVTPGVNVTLRCRAPQPAWRFGLFKPGEIAPLLFRDVSSELAEFFLEEVTPAQGGIYRCCYRRPDWGPGVWSQPSDVLELLVTEELPRPSLVALPGPVVGPGANVSLRCAGRLRNMSFVLYREGVAAPLQYRHSAQPWADFTLLGARAPGTYSCYYHTPSAPYVLSQRSEVLVISWEGEGPEARPASSAPGM
In experiment [7], B3 registered a Kd of 5.61 nM, a koff of 0.000512 s⁻¹ and a kon of 91300 M⁻¹ s⁻¹.
